# Laboratory results from FireProtDB.
# B1: Decorsin, P17350 (parent)
# chain: APRLPQCQGDDQEKCLCNKDECPPGQCRFPRGDADPYCE
# B2: Subtilisin BPN', P00782 (parent)
# chain: MRGKKVWISLLFALALIFTMAFGSTSSAQAAGKSNGEKKYIVGFKQTMSTMSAAKKKDVISEKGGKVQKQFKYVDAASATLNEKAVKELKKDPSVAYVEEDHVAHAYAQSVPYGVSQIKAPALHSQGYTGSNVKVAVIDSGIDSSHPDLKVAGGASMVPSETNPFQDNNSHGTHVAGTVAALNNSIGVLGVAPSASLYAVKVLGADGSGQYSWIINGIEWAIANNMDVINMSLGGPSGSAALKAAVDKAVASGVVVVAAAGNEGTSGSSSTVGYPGKYPSVIAVGAVDSSNQRASFSSVGPELDVMAPGVSIQSTLPGNKYGAYNGTSMASPHVAGAAALILSKHPNWTNTQVRSSLENTTTKLGDSFYYGKGLINVQAAAQ
# B3: 3-isopropylmalate dehydrogenase, P05645 (parent)
# chain: MKKRIALLPGDGIGPEVLESATDVLKSVAERFNHEFEFEYGLIGGAAIDEHHNPLPEETVAACKNADAILLGAVGGPKWDQNPSELRPEKGLLSIRKQLDLFANLRPVKVFESLSDASPLKKEYIDNVDFVIVRELTGGLYFGQPSKRYVNTEGEQEAVDTLFYKRTEIERVIREGFKMAAARKGKVTSVDKANVLESSRLWREVAEDVAQEFPDVKLEHMLVDNAAMQLIYAPNQFDVVVTENMFGDILSDEASMLTGSLGMLPSASLSSSGLHLFEPVHGSAPDIAGKGMANPFAAILSAAMLLRTSFGLEEEAKAVEDAVNKVLASGKRTRDLARSEEFSSTQAITEEVKAAIMSENTISNV
# B4: Triosephosphate isomerase, glycosomal, P04789 (parent)
# chain: MSKPQPIAAANWKCNGSQQSLSELIDLFNSTSINHDVQCVVASTFVHLAMTKERLSHPKFVIAAQNAIAKSGAFTGEVSLPILKDFGVNWIVLGHSERRAYYGETNEIVADKVAAAVASGFMVIACIGETLQERESGRTAVVVLTQIAAIAKKLKKADWAKVVIAYEPVWAIGTGKVATPQQAQEAHALIRSWVSSKIGADVAGELRILYGGSVNGKNARTLYQQRDVNGFLVGGASLKPEFVDIIKATQ
# B5: Ribonuclease HI, P0A7Y4 (parent)
# chain: MLKQVEIFTDGSCLGNPGPGGYGAILRYRGREKTFSAGYTRTTNNRMELMAAIVALEALKEHCEVILSTDSQYVRQGITQWIHNWKKRGWKTADKKPVKNVDLWQRLDAALGQHQIKWEWVKGHAGHPENERCDELARAAAMNPTLEDTGYQVEV
# Variants of: B1
# Conditions: Macrobdella decora; pH 7; Thermal; CD; Na2HPO4 10 mM; reversible: Yes; structure 1DEC; whole UniProt chain shown
Variant,Tm,"change of melting temperature, mutant - wild type (higher = more stable)"
P23A P24A,50 °C,-24 °C
P23A,66.5 °C,-7.5 °C
P24A,66.5 °C,-7.5 °C

# Variants of: B2
# Conditions: Bacillus amyloliquefaciens; pH 8; Thermal; DSC; Tris-HCl 50 mM; CaCl2 10 mM; reversible: no; structure 1SUP; whole UniProt chain shown
Variant,Tm,"change of melting temperature, mutant - wild type (higher = more stable)"
N325S,80.7 °C,2.4 °C

# Same assay, conditions: Bacillus amyloliquefaciens; pH 5; 20 °C; Thermal; DSC; Sodium acetate 100 mM; reversible: yes; structure 1SUP; whole UniProt chain shown
Variant,ddG of mutation (higher = less stable),unfolding free energy
Q70L,1.1 kcal/mol,1 kcal/mol
E62Q K87E,1.3 kcal/mol,0.8 kcal/mol
K87E,1 kcal/mol,1.1 kcal/mol

# Same assay, conditions: Bacillus amyloliquefaciens; pH 8; Thermal; DSC; Tris-HCl 50 mM; KCl 50 mM; structure 1SUP; whole UniProt chain shown
Variant,Tm,"change of melting temperature, mutant - wild type (higher = more stable)"
T129C,56.4 °C,-2.5 °C
T129C S194C,62 °C,3.1 °C
S194C,57.2 °C,-1.7 °C

# Same assay, conditions: Bacillus amyloliquefaciens; pH 7.5; Thermal; fluorescence; Pipes 10 mM; transition: 2; structure 1AK9; whole UniProt chain shown
Variant,Tm,"change of melting temperature, mutant - wild type (higher = more stable)",unfolding enthalpy (calorimetric)
T173M G209D,56.3 °C,-0.5 °C,72.8 kcal/mol

# Same assay, conditions: Bacillus amyloliquefaciens; pH 9.63; Thermal; DSC; glycine 50 mM; reversible: yes; structure 1SUP; whole UniProt chain shown
Variant,Tm,unfolding enthalpy (calorimetric),unfolding enthalpy (van 't Hoff)
M157F Y324K N325S S328C,63.5 °C,140 kcal/mol,140 kcal/mol

# Variants of: B3
# Conditions: Bacillus subtilis (strain 168); pH 7.6; Thermal; CD; Potassium phosphate 20 mM; reversible: yes; whole UniProt chain shown
row,Variant,Tm
1,I95L M292I T308I,70 °C
2,I95L T308I,66 °C

# Same assay, conditions: Bacillus subtilis (strain 168); pH 7.6; Thermal; CD; potassium phosphate 20 mM; reversible: No; whole UniProt chain shown
row,Variant,"change of melting temperature, mutant - wild type (higher = more stable)"
1,M256I,0 °C
2,M256A,7 °C
3,M256L,0 °C
4,M256V,2.5 °C
5,M256F,-12.5 °C

# Variants of: B4
# Conditions: Trypanosoma brucei brucei; pH 7; Thermal; CD; 3-(N-morpholino)propanesulfonic acid/dithiothreitol 20 mM/0.02 mM; EDTA 0.02 mM; structure 3TIM; whole UniProt chain shown
row,Variant,Tm
1,D227A,48.7 °C
2,D227N,49.3 °C
3,R191S,51.6 °C
4,R191A,47.3 °C

# Same assay, conditions: Trypanosoma brucei brucei; pH 7.4; Thermal; CD; MOPS 20 mM; EDTA 1 mM; reversible: no; structure 1TPE; whole UniProt chain shown
Variant,Tm,"change of melting temperature, mutant - wild type (higher = more stable)"
C14F,46.5 °C,-4.9 °C

# Same assay, conditions: Trypanosoma brucei brucei; pH 7; Thermal; CD; MOPS 20 mM; reversible: no; structure 1TPE; whole UniProt chain shown
Variant,Tm,"change of melting temperature, mutant - wild type (higher = more stable)"
T75R G76Q,52 °C,-5 °C

# Variants of: B5
# Conditions: Escherichia coli (strain K12); pH 3; 49.8 °C; Thermal; CD; glycine-HCl 10 mM; reversible: yes; structure 2RN2; whole UniProt chain shown
row,Variant,ddG of mutation (higher = less stable)
1,K91R D94E,0.6 kcal/mol
2,K91R D94E K95G,-1.2 kcal/mol
3,K95N,-0.9 kcal/mol
4,K95A,-0.1 kcal/mol
5,K91R K95G,-1.6 kcal/mol
6,Y28F R29H G30A R31H,0.7 kcal/mol

# Same assay, conditions: Escherichia coli (strain K12); pH 3; Thermal; CD; glycine-HCl 10 mM; reversible: yes; structure 2RN2; whole UniProt chain shown
Variant,Tm,"change of melting temperature, mutant - wild type (higher = more stable)",unfolding enthalpy (van 't Hoff)
K91R D94E,47.8 °C,-2 °C,93.8 kcal/mol
K91R D94E K95G,53.8 °C,4 °C,105 kcal/mol
K95N,49.8 °C,2.9 °C,109 kcal/mol
K95G,49.8 °C,5.7 °C,102 kcal/mol
K91R,49.8 °C,0.5 °C,119 kcal/mol
K91R K95G,55 °C,5.2 °C,114 kcal/mol
Y28F R29H G30A R31H,47.5 °C,-2.3 °C,92.5 kcal/mol

# Same assay, conditions: Escherichia coli (strain K12); pH 5.5; Thermal; CD; glycine-HCl 10 mM; reversible: yes; structure 2RN2; whole UniProt chain shown
Variant,Tm,"change of melting temperature, mutant - wild type (higher = more stable)",unfolding enthalpy (van 't Hoff)
K91R D94E,50.2 °C,-1.8 °C,87.5 kcal/mol
K91R D94E K95G,57.6 °C,5.6 °C,86.8 kcal/mol
K91R K95G,57.8 °C,5.8 °C,92 kcal/mol
Y28F R29H G30A R31H,48.8 °C,-3.2 °C,80.5 kcal/mol

# Same assay, conditions: Escherichia coli (strain K12); pH 3; 50.1 °C; Thermal; CD; glycine-HCl 10 mM; NaCl 0.1 M; reversible: yes; structure 2RN2; whole UniProt chain shown
row,Variant,ddG of mutation (higher = less stable)
1,A24V,-0.73 kcal/mol
2,Q76L,-0.24 kcal/mol
3,Q80L K117R,0.03 kcal/mol
4,K117R,0.06 kcal/mol
5,H62P T40A K122R,-0.52 kcal/mol
6,K95N,-0.88 kcal/mol
7,E119V R41C,-0.09 kcal/mol
8,A52V,-1.7 kcal/mol
9,E119V,-0.09 kcal/mol
10,G23A,-0.7 kcal/mol
11,H62D,-0.67 kcal/mol

# Same assay, conditions: Escherichia coli (strain K12); pH 3; Thermal; CD; glycine-HCl 10 mM; NaCl 0.1 M; reversible: yes; structure 2RN2; whole UniProt chain shown
Variant,Tm,"change of melting temperature, mutant - wild type (higher = more stable)",unfolding enthalpy (van 't Hoff)
A24V,52.5 °C,2.4 °C,109 kcal/mol
Q76L,50.9 °C,0.8 °C,110 kcal/mol
Q80L,51.1 °C,1 °C,114 kcal/mol
Q80L K117R,50 °C,-0.1 °C,104 kcal/mol
K117R,49.9 °C,-0.2 °C,97.1 kcal/mol
H62P T40A K122R,51.8 °C,1.7 °C,109 kcal/mol
K95N,53 °C,2.9 °C,109 kcal/mol
E119V R41C,50.4 °C,0.3 °C,101 kcal/mol
A52V,55.6 °C,5.5 °C,128 kcal/mol
G23A,52.4 °C,2.3 °C,99.3 kcal/mol
H62D,52.3 °C,2.2 °C,118 kcal/mol

# Same assay, conditions: Escherichia coli (strain K12); pH 5.5; Thermal; CD; Sodium acetate 20 mM; NaCl 0.1 M; reversible: yes; structure 2RN2; whole UniProt chain shown
Variant,Tm,"change of melting temperature, mutant - wild type (higher = more stable)",unfolding enthalpy (van 't Hoff)
A24V,55.9 °C,3.2 °C,101 kcal/mol
Q76L,53.8 °C,1.1 °C,81.2 kcal/mol
Q80L,53.5 °C,0.8 °C,94.6 kcal/mol
Q80L K117R,53.5 °C,0.8 °C,83.1 kcal/mol
H62P T40A K122R,55.8 °C,3.1 °C,96.9 kcal/mol
E119V R41C,56.9 °C,4.2 °C,107 kcal/mol
A52V,60.5 °C,7.8 °C,87.5 kcal/mol
E119V,55.4 °C,2.7 °C,94.3 kcal/mol
G23A,54.5 °C,1.8 °C,91.8 kcal/mol
H62D,52.1 °C,-0.6 °C,97.8 kcal/mol

# Same assay, conditions: Escherichia coli (strain K12); pH 5.5; 25 °C; GdnHCl; CD; glycine-HCl 10 mM; reversible: yes; structure 2RN2; whole UniProt chain shown
Variant,ddG of mutation (higher = less stable),denaturant m value,denaturant midpoint (higher = more stable),unfolding free energy
K91R D94E K95G,0.01 kcal/mol,4.36 kcal/mol/M,2.1 M,9.14 kcal/mol

# Same assay, conditions: Escherichia coli (strain K12); pH 5.5; 52 °C; Thermal; CD; glycine-HCl 10 mM; reversible: yes; structure 2RN2; whole UniProt chain shown
row,Variant,ddG of mutation (higher = less stable)
1,K91R D94E K95G,-1.5 kcal/mol
2,Y28F R29H G30A R31H,0.9 kcal/mol

# Same assay, conditions: Escherichia coli (strain K12); pH 3; Thermal; CD; Gly-HCl buffer 10 mM; NaCl 0.1 M; reversible: yes; structure 2RN2; whole UniProt chain shown
Variant,"change of melting temperature, mutant - wild type (higher = more stable)",ddG of mutation (higher = less stable)
V74I,2.4 °C,-0.7 kcal/mol
V74A,-7.6 °C,2.2 kcal/mol
V74L,3.7 °C,-1.1 kcal/mol

# Same assay, conditions: Escherichia coli (strain K12); pH 5.5; Thermal; CD; sodium acetate 20 mM; NaCl 0.1 M; reversible: yes; structure 2RN2; whole UniProt chain shown
Variant,"change of melting temperature, mutant - wild type (higher = more stable)",ddG of mutation (higher = less stable)
V74I,2.1 °C,-0.6 kcal/mol
V74A,-12.7 °C,3.4 kcal/mol
V74L,3.3 °C,-0.9 kcal/mol

# Same assay, conditions: Escherichia coli (strain K12); pH 5.5; 52.7 °C; Thermal; CD; Sodium acetate 20 mM; NaCl 0.1 M; reversible: yes; structure 2RN2; whole UniProt chain shown
row,Variant,ddG of mutation (higher = less stable)
1,K117R,-0.03 kcal/mol
2,K95N,-0.88 kcal/mol
3,E119V,-0.74 kcal/mol

# Same assay, conditions: Escherichia coli (strain K12); pH 5.5; 49.8 °C; Thermal; CD; Sodium acetate 20 mM; reversible: yes; structure 2RN2; whole UniProt chain shown
row,Variant,ddG of mutation (higher = less stable)
1,K95N,-0.9 kcal/mol
2,K95G,-1.9 kcal/mol
3,K95A,-0.1 kcal/mol
4,K91R,0 kcal/mol

# Same assay, conditions: Escherichia coli (strain K12); pH 5.5; Thermal; CD; Sodium acetate 20 mM; reversible: yes; structure 2RN2; whole UniProt chain shown
Variant,Tm,"change of melting temperature, mutant - wild type (higher = more stable)",unfolding enthalpy (van 't Hoff)
K95N,52 °C,3.2 °C,90 kcal/mol
K95G,52 °C,6.8 °C,90.4 kcal/mol
K95A,52 °C,0.4 °C,96.4 kcal/mol
K91R,52 °C,0.1 °C,96.2 kcal/mol
